This note sets out measurements from patent US10913773B2, “Bicyclic peptidyl inhibitor of tumor necrosis factor-alpha” (Ohio State Innovation Foundation, priority 2016, dated 2021).

B1: Anticachexin C1, Lys(FITC)-labelled (Table 2) (peptide)
peptide: [Phg]Y[dA]KY[dF]G[dK]H[Dap]K(FITC′)-NH2
modifications: linker (positions not given here) via trimesoyl″; not fully specified (N-terminus, bridges)
B2: C1-3 (peptide)
peptide: [Abu]Y[dA]KY[dF]G[dK]H[Dap]K(FITC)-NH2
modifications: linker N-4-10 via trimesoyl″
B3: C1-12 (peptide)
peptide: [Nle]Y[dN]KY[dF]G[dK]H[Dap]K(FITC′)-NH2
modifications: linker (positions not given here) via trimesoyl″; not fully specified (N-terminus, bridges)
B4: Asn-Asn-Asn-Lys(FITC)-labeled anticachexin C1 (peptide)
peptide: [Phg]Y[dA]KY[dF]G[dK]H[Dap]NNNK(FITC′)-NH2
modifications: bridge (positions not given here) via trimesoyl″; not fully specified (N-terminus, bridges); also: feature: K4 labeled with FITC
notes: also called C1-NNNK(FITC); NNNK-tagged anticachexin C1
B5: C1-19 (peptide)
peptide: [Nle]YSKY[dF]G[dK]H[Dap]K(FITC′)-NH2
modifications: linker (positions not given here) via trimesoyl″; not fully specified (N-terminus, bridges)
notes: L-Ser at position 3
B6: C1-4 (peptide)
peptide: VY[dA]KY[dF]G[dK]H[Dap]K(FITC)-NH2
modifications: linker (positions not given here) via trimesoyl″; not fully specified (bridges)
B7: C1-15 (peptide)
peptide: VY[dN]KY[dF]G[dK]H[Dap]K(FITC′)-NH2
modifications: linker (positions not given here) via trimesoyl″; not fully specified (N-terminus, bridges)
B8: C1-17 (peptide)
peptide: FY[dN]KY[dF]G[dK]H[Dap]K(FITC′)-NH2
modifications: linker (positions not given here) via trimesoyl″; not fully specified (N-terminus, bridges)
B9: C1-16 (peptide)
peptide: LY[dN]KY[dF]G[dK]H[Dap]K(FITC′)-NH2
modifications: linker (positions not given here) via trimesoyl″; not fully specified (N-terminus, bridges)
B10: C1-14 (peptide)
peptide: VY[dT]KY[dF]G[dK]H[Dap]K(FITC′)-NH2
modifications: linker (positions not given here) via trimesoyl″; not fully specified (N-terminus, bridges)
B11: C1-2 (peptide)
peptide: AY[dA]KY[dF]G[dK]H[Dap]K(FITC′)-NH2
modifications: linker (positions not given here) via trimesoyl″; not fully specified (N-terminus, bridges)
B12: C1-13 (peptide)
peptide: VY[dS]KY[dF]G[dK]H[Dap]K(FITC′)-NH2
modifications: linker (positions not given here) via trimesoyl″; not fully specified (N-terminus, bridges)
B13: C1-21 (peptide)
peptide: [Nle]Y[dS][Dap]Y[dF]G[dK]H[Dap]K(FITC′)-NH2
modifications: linker (positions not given here) via trimesoyl″; not fully specified (N-terminus, bridges)
B14: C1-20 (peptide)
peptide: [Nle]Y[dS][Orn]Y[dF]G[dK]H[Dap]K(FITC′)-NH2
modifications: linker (positions not given here) via trimesoyl″; not fully specified (N-terminus, bridges)
B15: C1-10 (peptide)
peptide: RY[dA]KY[dF]G[dK]H[Dap]K(FITC′)-NH2
modifications: bridge (positions not given here) via trimesoyl″; not fully specified (N-terminus, bridges)
B16: C1-41 (peptide)
peptide: [Nle]W[dS]KY[dH]G[dK]H[Dap]K(FITC)-NH2
modifications: linker N-4-10 via trimesoyl″
B17: C1-29 (peptide)
peptide: [Nle]Y[dS]KY[dY]G[dK]H[Dap]K(FITC)-NH2
modifications: linker N-4-10 via trimesoyl″
B18: C1-31 (peptide)
peptide: [Nle]Y[dS]KY[dL]G[dK]H[Dap]K(FITC)-NH2
modifications: linker N-4-10 via trimesoyl″
B19: C1-27 (peptide)
peptide: [Nle]L[dS]KY[dF]G[dK]H[Dap]K(FITC)-NH2
modifications: linker N-4-10 via trimesoyl″
B20: C1-32 (peptide)
peptide: [Nle]Y[dS]KY[dQ]G[dK]H[Dap]K(FITC)-NH2
modifications: linker N-4-10 via trimesoyl″
B21: C1-28 (peptide)
peptide: [Nle]Q[dS]KY[dF]G[dK]H[Dap]K(FITC)-NH2
modifications: linker N-4-10 via trimesoyl″
B22: C1-26 (peptide)
peptide: [Nle]H[dS]KY[dF]G[dK]H[Dap]K(FITC)-NH2
modifications: linker N-4-10 via trimesoyl″
B23: C1-22 (peptide)
peptide: [Nle]F[dS]KY[dF]G[dK]H[Dap]K(FITC′)-NH2
modifications: linker (positions not given here) via trimesoyl″; not fully specified (N-terminus, bridges)
B24: C1-23 (peptide)
peptide: [Nle][Phe(4-F)][dS]KY[dF]G[dK]H[Dap]K(FITC′)-NH2
modifications: bridge (positions not given here) via trimesoyl″; not fully specified (N-terminus, bridges)
B25: C1-37 (peptide)
peptide: [Nle][Phe(4-F)][dS]KY[dQ]G[dK]H[Dap]K(FITC)-NH2
modifications: linker N-4-10 via trimesoyl″
B26: C1-40 (peptide)
peptide: [Nle][Phe(4-Cl)][dS]KY[dH]G[dK]H[Dap]K(FITC)-NH2
modifications: linker N-4-10 via trimesoyl″
B27: C1-39 (peptide)
peptide: [Nle][Phe(4-F)][dS]KY[dH]G[dK]H[Dap]K(FITC)-NH2
modifications: linker (positions not given here) via trimesoyl″; not fully specified (bridges)
B28: C1-25 (peptide)
peptide: [Nle][Phe(3,4-F2)][dS]KY[dF]G[dK]H[Dap]K(FITC)-NH2
modifications: linker N-4-10 via trimesoyl″
B29: C1-24 (peptide)
peptide: [Nle][Phe(4-Cl)][dS]KY[dF]G[dK]H[Dap]K(FITC)-NH2
modifications: linker N-4-10 via trimesoyl″
B30: C1-36 (peptide)
peptide: [Nle]Y[dS]K[2Nal][dH]G[dK]H[Dap]K(FITC)-NH2
modifications: linker N-4-10 via trimesoyl″
B31: C1-33 (peptide)
peptide: [Nle]Y[dS]K[Phe(4-F)][dH]G[dK]H[Dap]K(FITC)-NH2
modifications: linker N-4-10 via trimesoyl″
B32: C1-34 (peptide)
peptide: [Nle]Y[dS]K[Phe(4-Cl)][dH]G[dK]H[Dap]K(FITC)-NH2
modifications: linker N-4-10 via trimesoyl″

Positions of bridges follow the written chain, without caps; N, C: chain ends. Non-standard residues stand in square brackets, D forms with d. Primed or numbered codes have the meaning given here. No end group written: not given here. *: point of attachment. FITC = O=C1OC2(c3ccc(O)cc3Oc3cc(O)ccc32)c2ccc(NC(=S)*)cc21; trimesoyl″ = benzene-1,3,5-tricarbonyl scaffold; FITC′ = fluorescein isothiocyanate, on Lys NZ; Phe(3,4-F2) = N[C@@H](Cc1ccc(F)c(F)c1)C(=O)O; Phe(4-Cl) = N[C@@H](Cc1ccc(Cl)cc1)C(=O)O; Phe(4-F) = N[C@@H](Cc1ccc(F)cc1)C(=O)O; 2Nal = N[C@@H](Cc1ccc2ccccc2c1)C(=O)O; Phg = N[C@H](C(=O)O)c1ccccc1; Nle = CCCC[C@H](N)C(=O)O; Orn = NCCC[C@H](N)C(=O)O; Abu = CC[C@H](N)C(=O)O; Dap = NC[C@H](N)C(=O)O

Broadly, the Kd is the free concentration of one partner at which half of the binding sites on the other are occupied at equilibrium, for simple one-to-one binding.

In the first experiment the target is T1, Recombinant TNFα containing an N-terminal 13-aa ybbR tag (human, UniProt P01375 77-233, biotin at the ybbR tag in the ELISA assays).
T1 construct: Expressed in E. coli; Same construct used unlabelled (FA) and biotinylated on NeutrAvidin (ELISA); also called tumor necrosis factor-alpha; human TNFα; not shown: N-terminal 13-aa ybbR tag
T1 sequence (P01375 77-233): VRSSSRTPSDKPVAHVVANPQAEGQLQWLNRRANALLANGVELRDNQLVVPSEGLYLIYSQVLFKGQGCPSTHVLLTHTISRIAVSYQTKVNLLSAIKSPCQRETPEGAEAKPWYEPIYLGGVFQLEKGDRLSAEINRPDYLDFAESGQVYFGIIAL
Nature of the experiment: FA, FITC-peptide + TNFα titration. Here is the method:
(§1) The FA values were measured on a Molecular Devices Spectramax M5 spectrofluorimeter, with excitation and emission wavelengths at 485 and 525 nm, respectively. Equilibrium dissociation constants (KD) were determined by plotting the FA values as a function of TNFα concentration and fitting the data to the following equation $$Y = \frac{\left(Amin + \left(Amax \times \frac{Q_b}{Q_f} - Amin\right)\left(\frac{(L+x+K_d) - \sqrt{((L+x+K_d)^2 - 4Lx)}}{2L}\right)\right)}{\left(1 + \left(\frac{Q_b}{Q_f} - 1\right)\left(\frac{(L+x+K_d) - \sqrt{((L+x+K_d)^2 - 4Lx)}}{2L}\right)\right)}$$
(§2) where Y is the measured anisotropy at a given TNFα concentration x; L is the bicyclic peptide concentration; Qb/Qf is the correction fact for dye-protein interaction; Amax is the maximum anisotropy when all the peptides are bound to TNFα, while $Amin$ is the minimum anisotropy. […] The FA values were plotted against the competitor peptide concentration to determine the IC$50$ values.
With B1, the Kd stood at 1400 nM.

As to B2, the Kd is 2000 nM. As to B3, the dissociation constant Kd was determined as 1400 nM. Same read-out and setting: the value for B4 was 800 nM.

Take B5: the Kd came out at 6800 nM.

For the molecule B6, the Kd came out at 1700 nM.

In the case of B7, the Kd was determined as 3200 nM. Consider B8, for which the Kd was 2200 nM. Same read-out and setting: the same measure for B9: 2700 nM. Same read-out and setting: the same measure for B10: 2900 nM; for B11: 1800 nM. Consider B12, for which the equilibrium dissociation constant (Kd) was determined as 2400 nM. In the case of B13, the Kd came out at 5900 nM. Regarding B14, the Kd is 3500 nM.

Another experiment addresses T1, Recombinant TNFα containing an …. Nature of the experiment: FA. How it is done:
as §1, §2
On to B15, for which the “fold decrease in TNFα binding against C1 (Phg at position-1)” value was no less than 5 fold.

The target is the same in a further experiment. The experiment can be described thus: FA, FITC-peptide + TNFα titration. The source holds these as a separate data set. How it is done: as §1, §2
Take B16: the Kd was determined as 430 nM.

Regarding B17, the Kd is 2000 nM. Still for that read-out and setting: the value for B18 was 2500 nM; that for B19 was 3700 nM; that for B20 was 1300 nM. For the molecule B21, the Kd was 4300 nM. With B22, the Kd stood at 2100 nM. Still for that read-out and setting: the same measure for B23: 1700 nM; for B24: 1200 nM. Regarding B25, the Kd is 1300 nM. The same measure, in the same setting: the same measure for B26: 4100 nM. As for B27, the Kd came to 1700 nM. In the case of B28, the Kd amounted to 5400 nM. Turning to B29, the Kd turned out to be 4800 nM. Take B30: the Kd is 1300 nM.

As for B31, the Kd stood at 760 nM. On the same count and under the same terms, the same measure for B32: 1600 nM.
